Reference: the supplement of paper PMC11246515
± gives the standard deviation of the averaged measurements.

Experiment: total protein half-life in vivo (active degradation + dilution); higher = more stable protein
[1] = E. coli NCM3722 delta-clpP delta-lon delta-hslV, growth: N-lim chemostat, doubling time 6 h
[2] = E. coli NCM3722 delta-smpB, growth: N-lim chemostat, doubling time 6 h
[3] = wild type E. coli NCM3722, growth: C-lim chemostat, doubling time 3 h
[4] = wild type E. coli NCM3722, growth: C-lim chemostat, doubling time 12 h
[5] = wild type E. coli NCM3722, growth: P-lim chemostat, doubling time 12 h
[6] = E. coli NCM3722 delta-clpP, growth: N-lim chemostat, doubling time 6 h
[7] = E. coli NCM3722 delta-lon, growth: N-lim chemostat, doubling time 6 h
[8] = wild type E. coli NCM3722, growth: N-lim chemostat, doubling time 6 h
[9] = wild type E. coli NCM3722, growth: N-lim chemostat, doubling time 12 h
[10] = wild type E. coli NCM3722, growth: P-lim chemostat, doubling time 6 h
[11] = E. coli NCM3722 delta-hslV, growth: N-lim chemostat, doubling time 6 h
[12] = wild type E. coli NCM3722, growth: C-lim chemostat, doubling time 6 h

Row | Sequence | total protein half-life in vivo [1] [h] | total protein half-life in vivo [2] [h] | total protein half-life in vivo [3] [h] | total protein half-life in vivo [4] [h] | total protein half-life in vivo [5] [h] | total protein half-life in vivo [6] [h] | total protein half-life in vivo [7] [h] | total protein half-life in vivo [8] [h] | total protein half-life in vivo [9] [h] | total protein half-life in vivo [10] [h] | total protein half-life in vivo [11] [h] | total protein half-life in vivo [12] [h]
1 | METVFDALKAMGKATSIELAARLDISREEVLNELWELKKAGFVDKSAYTWRVADNNVQQEQPAQAELPEEITTATVAKISECDLTATIEQRGPQTADELATLFGTTSRKVASTLAMAISKGRLIRVNQGGKFRYCIPGDNLPAEPKAASVSPLWLSASSSACHGVLIITVITPSPTKNSATKMPEN | 5.08 ± 0.26 | 1.14 | 1.42 |  |  |  |  |  |  |  |  | 
2 | MTKTVSTSKKPRKQHSPEFRSEALKLAERIGVTAAARELSLYESQLYNWRSKQQNQQTSSERELEMSTEIARLKRQLAERDEELAILQKAATYFAKRLK [P0CF66] |  |  |  | 3.53 | 5.25 ± 0.29 |  |  |  |  |  |  | 
3 | MLRFLNQCSQGRGAWLLMAFTALALELTALWFQHVMLLKPCVLCIYERCALFGVLGAALIGAIAPKTPLRYVAMVIWLYSAFRGVQLTYEHTMLQLYPSPFATCDFMVRFPEWLPLDKWVPQVFVASGDCAERQWDFLGLEMPQWLLGIFIAYLIVAVLVVISQPFKAKKRDLFGR [P0A6M2] |  |  |  |  |  | 6.09 | > 8 | 6.88 | 9.57 | 5.52 |  | 
4 | MFVKLLRSVAIGLIVGAILLVAMPSLRSLNPLSTPQFDSTDETPASYNLAVRRAAPAVVNVYNRGLNTNSHNQLEIRTLGSGVIMDQRGYIITNKHVINDADQIIVALQDGRVFEALLVGSDSLTDLAVLKINATGGLPTIPINARRVPHIGDVVLAIGNPYNLGQTITQGIISATGRIGLNPTGRQNFLQTDASINHGNSGGALVNSLGELMGINTLSFDKSNDGETPEGIGFAIPFQLATKIMDKLIRDGRVIRGYIGIGGREIAPLHAQGGGIDQLQGIVVNEVSPDGPAANAGIQVNDLIISVDNKPAISALETMDQVAEIRPGSVIPVVVMRDDKQLTLQVTIQEYPATN [P0AEE3] | 7.33 ± 0.89 | 6.21 ± 0.68 | 3.25 ± 0.23 | 11.3 ± 1.2 | 12.1 ± 0.81 |  | 5.86 ± 0.29 | 5.98 ± 0.72 | 13.8 ± 2.3 | 7.16 ± 0.27 | 5.79 ± 0.39 | 5.91 ± 0.28
5 | MEISFTRVALLAAALFFVGCDQKPQPAKTHATEVTVLEGKTMGTFWRASIPGIDAKRSAELKEKIQTQLDADDQLLSTYKKDSALMRFNDSQSLSPWPVSEAMADIVTTSLRIGAKTDGAMDITVGPLVNLWGFGPEQQPVQIPSQEQIDAMKAKTGLQHLTVINQSHQQYLQKDLPDLYVDLSTVGEGYAADHLARLMEQEGISRYLVSVGGALNSRGMNGEGLPWRVAIQKPTDKENAVQAVVDINGHGISTSGSYRNYYELDGKRLSHVIDPQTGRPIEHNLVSVTVIAPTALEADAWDTGLMVLGPEKAKEVVRREGLAVYMITKEGDSFKTWMSPQFKSFLVSEKN [P0AB85] | 6.34 ± 0.12 | 5.97 ± 0.26 | 2.9 ± 0.21 | 11.9 ± 0.74 | 13.4 ± 0.18 | 6.53 ± 0.012 | 6.9 ± 0.33 | 6.29 ± 0.19 | 12.3 ± 1.8 | 6.3 ± 1.1 | 5.8 ± 0.66 | 6.95 ± 0.84
6 | MATTTAECLTQETMDYHALNAMLNLYDSAGRIQFDKDRQAVDAFIATHVRPNSVTFSSQQQRLNWLVNEGYYDESVLNRYSRDFVITLFTHAHTSGFRFQTFLGAWKFYTSYTLKTFDGKRYLEDFADRVTMVALTLAQGDETLALQLTDEMLSGRFQPATPTFLNCGKQQRGELVSCFLLRIEDNMESIGRAVNSALQLSKRGGGVAFLLSNLREAGAPIKRIENQSSGVIPVMKMLEDAFSYANQLGARQGAGAVYLHAHHPDILRFLDTKRENADEKIRIKTLSLGVVIPDITFHLAKENAQMALFSPYDVERVYGKPFADVAISQHYDELVADERIRKKYLNARDFFQRLAEIQFESGYPYIMYEDTVNRANPIAGRINMSNLCSEILQVNSASEYDENLDYTRTGHDISCNLGSLNIAHTMDSPDFARTVETAVRGLTAVSDMSHIRSVPSIEAGNAASHAIGLGQMNLHGYLAREGIAYGSPEALDFTNLYFYAITWHALRTSMLLARERGETFAGFKQSRYASGEYFSQYLQGNWQPKTAKVGELFTRSGITLPTREMWAQLRDDVMRYGIYNQNLQAVPPTGSISYINHATSSIHPIVAKVEIRKEGKTGRVYYPAPFMTNENLALYQDAYEIGAEKIIDTYAEATRHVDQGLSLTLFFPDTATTRDINKAQIYAWRKGIKTLYYIRLRQMALEGTEIEGCVSCAL | 4.76 ± 0.29 |  |  | 2.88 ± 1.4 |  | 4.61 ± 2.7 |  |  |  |  |  | 2.61 ± 0.17
7 | MDQKLLTDFRSELLDSRFGAKAISTIAESKRFPLHEMRDDVAFQIINDELYLDGNARQNLATFCQTWDDENVHKLMDLSINKNWIDKEEYPQSAAIDLRCVNMVADLWHAPAPKNGQAVGTNTIGSSEACMLGGMAMKWRWRKRMEAAGKPTDKPNLVCGPVQICWHKFARYWDVELREIPMRPGQLFMDPKRMIEACDENTIGVVPTFGVTYTGNYEFPQPLHDALDKFQADTGIDIDMHIDAASGGFLAPFVAPDIVWDFRLPRVKSISASGHKFGLAPLGCGWVIWRDEEALPQELVFNVDYLGGQIGTFAINFSRPAGQVIAQYYEFLRLGREGYTKVQNASYQVAAYLADEIAKLGPYEFICTGRPDEGIPAVCFKLKDGEDPGYTLYDLSERLRLRGWQVPAFTLGGEATDIVVMRIMCRRGFEMDFAELLLEDYKASLKYLSDHPKLQGIAQQNSFKHT | 5.86 ± 0.071 | 5.91 ± 0.41 | 3.71 | > 16 | 12.1 ± 1.2 |  | 5.71 ± 0.19 | 5.53 | 9.35 ± 0.68 | 6.024 ± 0.042 |  | 6.55 ± 0.6
8 | MKQQIQLRRREVDETADLPAELPPLLRRLYASRGVRSAQELERSVKGMLPWQQLSGVEKAVEILYNAFREGTRIIVVGDFDADGATSTALSVLAMRSLGCSNIDYLVPNRFEDGYGLSPEVVDQAHARGAQLIVTVDNGISSHAGVEHARSLGIPVIVTDHHLPGDTLPAAEAIINPNLRDCNFPSKSLAGVGVAFYLMLALRTFLRDQGWFDERNIAIPNLAELLDLVALGTVADVVPLDANNRILTWQGMSRIRAGKCRPGIKALLEVANRDAQKLAASDLGFALGPRLNAAGRLDDMSVGVALLLCDNIGEARVLANELDALNQTRKEIEQGMQIEALTLCEKLERSRDTLPGGLAMYHPEWHQGVVGILASRIKERFHRPVIAFAPAGDGTLKGSGRSIQGLHMRDALERLDTLYPGMMLKFGGHAMAAGLSLEEDKFKLFQQRFGELVTEWLDPSLLQGEVVSDGPLSPAEMTMEVAQLLRDAGPWGQMFPEPLFDGHFRLLQQRLVGERHLKVMVEPVGGGPLLDGIAFNVDTALWPDNGVREVQLAYKLDINEFRGNRSLQIIIDNIWPI | 4.22 ± 0.25 | 2.07 ± 0.028 | 2.11 ± 0.042 | 4.42 ± 0.24 | 3.89 ± 0.38 | 3.87 ± 1.1 | 2.74 ± 0.093 | 2.25 ± 0.044 | 3.5 ± 0.59 | 2.33 ± 0.37 | 2.23 ± 0.075 | 3.66 ± 0.65
